Laboratory results as given in publication PMC11869522, “Competitive displacement of lipoprotein lipase from heparan sulfate is orchestrated by a disordered acidic cluster in GPIHBP1” (Journal of Lipid Research, 2025).

B1: GPIHBP1^Cluster1-neutral: GPIHBP1 mutant with all Glu/Asp replaced by Gln/Asn at residues 1–17 (protein)
chain: QTQQQQQQQNQNHGPNNYDEEDEDEVEEEETNRLPGGGSRVLLRCYTCKSLPRDERCNLTQNCSHGQTCTTLIAHGNTESGLLTTHSTWCTDSCQPITKTVEGTQVTMTCCQSSLCNVPPWQSSRVQDPTG
modifications: Tyr18 sulfation present in less than 40%; one bi-antennary N-linked glycosylation; left off: uPAR domain III, N-terminal, cleaved
B2: GPIHBP1^Cluster2-neutral: GPIHBP1 mutant with all Glu/Asp replaced by Gln/Asn at residues 19–30 (protein)
chain: QTQQEEEEEDEDHGPDDYNQQNQNQVQQQQTNRLPGGGSRVLLRCYTCKSLPRDERCNLTQNCSHGQTCTTLIAHGNTESGLLTTHSTWCTDSCQPITKTVEGTQVTMTCCQSSLCNVPPWQSSRVQDPTG
modifications: Tyr18 sulfation absent; one bi-antennary N-linked glycosylation; left off: uPAR domain III, N-terminal, cleaved

Key:
[1] = system: bLPL; assay: Protein stability by differential scanning fluorimetry (nano-DSF, turbidity); set-up: species or system bovine; conditions: 10 μM bLPL with 15 μM GPIHBP1 variant; 10 mM HEPES, 150 mM NaCl pH 7.4; 1°C/min, 15−95°C; back-reflection turbidity; triplicates
Protocol: The thermostability of bLPL in the presence or absence of GPIHBP1 was measured by differential scanning fluorometry (nano-DSF) with a Prometheus Panta (Nanotemper Technologies) using a previously published method ([22]). In brief; 10 μM bLPL alone or in the presence of 15 μM GPIHBP1^1–131, 15 μM GPIHBP1^Cluster1-neutral, or 15 μM GPIHBP1^Cluster2-neutra1 were prepared in 10 mM HEPES, 150 mM NaCl (pH 7.4) and heated in capillaries with a ramping temperature of 1°C/min from 15−95°C. Turbidity was measured by assessing back-reflection and was used as a surrogate marker for thermal unfolding ([20]). All samples were measured in triplicates.
Next, we probed if recombinant GPIHBP1^1–131 with defined neutralizations of charge-clusters 1 or 2 had distinct impacts on their ability to protect bLPL from ANGPTL4-mediated inactivation. […]
Fig. 4 GPIHBP1 clusters 1 and 2 have distinct impacts on LPL stability and inactivation by ANGPTL4. […] LPL activity was measured by the release of free fatty acids from Intralipid using the NEFA 2 assay. […] B: Thermostability of 10 μM bLPL in the presence of 15 μM of the different GPIHBP1 charge variants using Tturbidity measured by Prometheus Panta™ as a surrogate marker for unfolding ([20]).

[2] = system: bLPL; assay: Lipase activity assay, protection against ANGPTL4-catalyzed LPL inactivation; format: biochemical, bovine; conditions: 30 nM bLPL, 30 nM ANGPTL4, 300 nM GPIHBP1 variant, room temperature up to 60 min; Intralipid, NEFA; triplicates

| Molecule | Tturbidity (thermal unfolding and aggregation of bLPL) [1] [°C] | protection of bLPL from ANGPTL4-mediated inactivation (time-dependent decay of LPL activity) [2] |
| --- | --- | --- |
| B1 | 50.4 ± 0.2 | greater efficacy than GPIHBP1^Cluster2-neutral |
| B2 | 48.8 ± 0.1 | – |
